Laboratory results taken from publication PMC4045321 (2014).

Biological target: the molecule itself
Test: size exclusion chromatography

B1: eIF2Bα (protein)
chain: MDDKELIEYFKSQMKEDPDMASAVAAIRTLLEFLKRDKGETIQGLRANLTSAIETLCGVDSSVAVSSGGELFLRFISLASLEYSDYSKCKKIMIERGELFLRRISLSRNKIADLCHTFIKDGATILTHAYSRVVLRVLEAAVAAKKRFSVYVTESQPDLSGKKMAKALCHLNVPVTVVLDAAVGYIMEKADLVIVGAEGVVENGGIINKIGTNQMAVCAKAQNKPFYVVAESFKFVRLFPLNQQDVPDKFKYKADTLKVAQTGQDLKEEHPWVDYTAPSLITLLFTDLGVLTPSAVSDELIKLYL
Kd: < 1 nM
